PMC5514391 (EBioMedicine, 2017)

B1: AdcR H42A/H108A (site 1 metal ligand mutant) (natural protein)
chain: MGTLEKKLDNLVNTILLKAENQHELLFGACQSDVKLTNTQEAILMLLSQQRLTNTDLAKALNISQAAVTKAIKSLVKQDMLAGTKDTVDARVTYFELTELAKPIASEATHHHDETLNVYNRLLQKFSAKELEIVDKFVTVFAEELEG
B2: AdcR C30A (site 2 metal ligand mutant) (natural protein)
chain: MGTLEKKLDNLVNTILLKAENQHELLFGAAQSDVKLTNTQEHILMLLSQQRLTNTDLAKALNISQAAVTKAIKSLVKQDMLAGTKDTVDARVTYFELTELAKPIASEHTHHHDETLNVYNRLLQKFSAKELEIVDKFVTVFAEELEG

Molecular target: the molecule itself
Assay: SEC

Protein | stoichiometry N
B1 | 2
B2 | 2
